Experiment [1] deals with mAb1 WT-AAA (human). In words: mass photometry; 200 nM mAb1 Fc variant pre-incubated with 4000 nM PRYSPRY domain, analysed at a 1:250 dilution; PBS pH 7.4, room temperature.
The target of a further experiment is mAb1 HH (human). In words: SPR; antibody Fc variants captured via CaptureSelect Human Fab-kappa ligand on a C1 chip (approx. 60 RU); PRYSPRY injected, five concentrations, two-fold series; 25°C, HBS-EP+ pH 7.4; 1:1 Langmuir fit. (In general: Surface plasmon resonance follows binding to a sensor surface in real time, without labels.)
The target of experiment [2] is mAb1 WT-AAA (human). Described as above.
In another experiment the target is mAb1 YTE (human). The description is as above.
A further experiment deals with Ustekinumab (human). In words: SPR; Biacore T200, C1 chip, 25 °C, HBS-EP+ (10 mM HEPES, 150 mM NaCl, 3 mM EDTA, 0.05% P20, pH 7.4); antibody Fc variants captured via anti-human Fab-kappa nanobody (about 60 RU), Fc only variants amine-coupled (60-80 RU), cytokine-Fc fusions captured via anti-PGLALA F(ab')2 (35-40 RU); PRYSPRY domain injected in five two-fold dilutions from 500, 1000 or 2000 nM; global fit, Langmuir 1:1, affinity mode.
Sequence of Ustekinumab (human) (heavy, as listed by the source, chain 1 of 2): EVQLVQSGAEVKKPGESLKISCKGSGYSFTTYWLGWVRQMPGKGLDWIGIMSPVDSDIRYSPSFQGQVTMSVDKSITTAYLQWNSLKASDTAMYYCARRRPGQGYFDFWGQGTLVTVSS
Sequence of Ustekinumab (human) (light, as listed by the source, chain 2 of 2): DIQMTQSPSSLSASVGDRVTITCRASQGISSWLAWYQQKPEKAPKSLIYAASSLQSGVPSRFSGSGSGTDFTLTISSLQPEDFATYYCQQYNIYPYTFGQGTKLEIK

In experiment [3] the target is mAb2 WT KiH (human IgG1, knob-into-hole, Fc wild type at the TRIM21 site) (human). The description is as above.

pKd: −log10 of the molar value.

In general, stoichiometry N refers to the number of molecules, sites or subunits per partner or assembly. A word on the pKd: it is −log10 of the Kd, conventionally taken in molar units. For orientation: koff means the rate constant with which the complex falls apart. A higher koff goes with fast dissociation. As a reminder, the kon is the rate constant with which the complex forms.

Sequence of TRIM21 PRYSPRY domain (P19474 277-475): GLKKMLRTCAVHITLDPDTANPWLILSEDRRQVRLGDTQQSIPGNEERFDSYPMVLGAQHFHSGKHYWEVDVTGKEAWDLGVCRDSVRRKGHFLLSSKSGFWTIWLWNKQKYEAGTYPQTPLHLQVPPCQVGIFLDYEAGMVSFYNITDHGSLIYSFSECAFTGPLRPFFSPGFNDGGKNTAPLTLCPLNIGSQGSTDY

With “TRIM21 PRYSPRY domain (from UniProt P19474-1 277-475) (domain or fragment)”, in the experiment with mAb1 WT-AAA (human) [1], the stoichiometry N was determined as 1. In the experiment with mAb1 HH (human), this substance yielded a fold decrease of affinity against mAb1 Fc WT of 2.4 fold, a fold faster off rate against WT of 5 fold and a fold faster on rate against WT of 2 fold. In the experiment with mAb1 WT-AAA (human) [2], this substance had a negative logarithm of the Kd (pKd) of 7.40 and a stoichiometry N of 1. In the experiment with mAb1 YTE (human), this substance yielded a fold decrease of affinity against mAb1 Fc WT of 1.7 fold and a fold faster off rate against WT of 1.6 fold. In addition, in the experiment with Ustekinumab (human), the pKd is 7.37, the koff stood at 0.104 s⁻¹ and the kon was 2.46e+06 M⁻¹ s⁻¹. In experiment [3], this substance showed a pKd of 7.30, a koff of 0.118 s⁻¹ and a kon of 2.38e+06 M⁻¹ s⁻¹.

These data come from article PMC11210195.
